{"source": "IntAct's records for PubMed 22274616", "parents": {"B1": {"name": "Protein PML (Homo sapiens), P29590 (parent)", "chain": "MEPAPARSPRPQQDPARPQEPTMPPPETPSEGRQPSPSPSPTERAPASEEEFQFLRCQQCQAEAKCPKLLPCLHTLCSGCLEASGMQCPICQAPWPLGADTPALDNVFFESLQRRLSVYRQIVDAQAVCTRCKESADFWCFECEQLLCAKCFEAHQWFLKHEARPLAELRNQSVREFLDGTRKTNNIFCSNPNHRTPTLTSIYCRGCSKPLCCSCALLDSSHSELKCDISAEIQQRQEELDAMTQALQEQDSAFGAVHAQMHAAVGQLGRARAETEELIRERVRQVVAHVRAQERELLEAVDARYQRDYEEMASRLGRLDAVLQRIRTGSALVQRMKCYASDQEVLDMHGFLRQALCRLRQEEPQSLQAAVRTDGFDEFKVRLQDLSSCITQGKDAAVSKKASPEAASTPRDPIDVDLPEEAERVKAQVQALGLAEAQPMAVVQSVPGAHPVPVYAFSIKGPSYGEDVSNTTTAQKRKCSQTQCPRKVIKMESEEGKEARLARSSPEQPRPSTSKAVSPPHLDGPPSPRSPVIGSEVFLPNSNHVASGAGEAEERVVVISSSEDSDAENSSSRELDDSSSESSDLQLEGPSTLRVLDENLADPQAEDRPLVFFDLKIDNETQKISQLAAVNRESKFRVVIQPEAFFSIYSKAVSLEVGLQHFLSFLSSMRRPILACYKLWGPGLPNFFRALEDINRLWEFQEAISGFLAALPLIRERVPGASSFKLKNLAQTYLARNMSERSAMAAVLAMRDLCRLLEVSPGPQLAQHVYPFSSLQCFASLQPLVQAAVLPRAEARLLALHNVSFMELLSAHRRDRQGGLKKYSRYLSLQTTTLPPAQPAFNLQALGTYFEGLLEGPALARAEGVSTPLAGRGLAERASQQS"}}}
{"variants_of": "B1", "details": "with per2_mouse Per2, O54943"}
{"variant": "K487R", "effect of a mutation on the interaction": "decreasing interaction strength"}
